This is an account of results in the supplement of paper PMC5998384.

The test system of series [1] is HeLa Kyoto. Description: solubility in G1/S (NP-40 vs SDS abundance) (log2 ratio); higher = more soluble. The following applies: cell cycle stage: G1/S.
The test system of series [2] is HeLa Kyoto. Description: melting temperature (median over replicates), in situ; higher = more thermally stable.
The subject of series [3] is HeLa Kyoto. Description: thermal stability score vs G1/S (z-score of summed log2 fold changes over temperatures); higher = more thermally stable than in G1/S.
In series [4] the test system is HeLa Kyoto. Description: solubility change mitosis vs G1/S (difference of NP-40 vs SDS log2 ratios) (log2 ratio difference); higher = more soluble in mitosis.
Where [5] appears, read: cell cycle stage: early G1 (4.5 h after nocodazole release).
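Throughout, for melting temperature (median over replicates), in situ: HeLa Kyoto cells synchronized by double thymidine or nocodazole block, proteins quantified by TMT10plex mass spectrometry, three independent biological replicates.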
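Throughout, for solubility change mitosis vs G1/S (difference of NP-40 vs SDS log2 ratios): synchronized HeLa Kyoto cells (double thymidine block for G1/S, nocodazole release for mitosis), protein amounts in NP-40 versus SDS lysates quantified by mass spectrometry, three biological replicates.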
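Throughout, for solubility in G1/S (NP-40 vs SDS abundance): HeLa Kyoto cells arrested at G1/S by double thymidine block, proteins quantified by TMT10plex mass spectrometry in mild NP-40 versus SDS extracts, three biological replicates.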
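Throughout, for thermal stability score vs G1/S (z-score of summed log2 fold changes over temperatures): synchronized HeLa Kyoto cells, proteins quantified by TMT10plex mass spectrometry, three biological replicates, mitosis taken 0.5 h after nocodazole release, G1/S directly after double thymidine block.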

For “MAAAAAAVGPGAGGAGSAVPGGAGPCATVSVFPGARLLTIGDANGEIQRHAEQQALRLEVRAGPDSAGIALYSHEDVCVFKCSVSRETECSRVGKQSFIITLGCNSVLIQFATPNDFCSFYNILKTCRGHTLERSVFSERTEESSAVQYFQFYGYLSQQQNMMQDYVRTGTYQRAILQNHTDFKDKIVLDVGCGSGILSFFAAQAGARKIYAVEASTMAQHAEVLVKSNNLTDRIVVIPGKVEEVSLPEQVDIIISEPMGYMLFNERMLESYLHAKKYLKPSGNMFPTIGDVHLAPFTDEQLYMEQFTKANFWYQPSFHGVDLSALRGAAVDEYFRQPVVDTFDIRILMAKSVKYTVNFLEAKEGDLHRIEIPFKFHMLHSGLVHGLAFWFDVAFIGSIMTVWLSTAPTEPLTHWYQVRCLFQSPLFAKAGDTLSGTCLLIANKRQSYDISIVAQVDQTGSKSSNLLDLKNPFFRYTGTTPSPPPGSHYTSPSENMWNTGSTYNLSSGMAVAGMPTAYDLSSVIASGSSVGHNNLIPLANTGIVNHTHSRMGSIMSTGIVQGSSGAQGSGGGSTSAHYAVNSQFTMGGPAISMASPMSIPTNTMHYGS [CARM1]”, the “solubility in G1/S (log2)” value in the series with HeLa Kyoto [1] was -0.0215. The melting temperature in the series with HeLa Kyoto [2] (cell cycle stage: G1/S) was found to be 56 °C; in the series on HeLa Kyoto [2] (cell cycle stage: mitosis), 56.3 °C. For the same sequence, the thermal stability score in the series on HeLa Kyoto [3] (setting [5]) was -1.1; in the series with HeLa Kyoto [3] (cell cycle stage: mitosis) it was -1.42. Moreover, the “solubility change mitosis (log2)” value in the series with HeLa Kyoto [4] is -0.216.

Regarding “MAAAAARVVLSSAARRRLWGFSESLLIRGAAGRSLYFGENRLRSTQAATQVVLNVPETRVTCLESGLRVASEDSGLSTCTVGLWIDAGSRYENEKNNGTAHFLEHMAFKGTKKRSQLDLELEIENMGAHLNAYTSREQTVYYAKAFSKDLPRAVEILADIIQNSTLGEAEIERERGVILREMQEVETNLQEVVFDYLHATAYQNTALGRTILGPTENIKSISRKDLVDYITTHYKGPRIVLAAAGGVSHDELLDLAKFHFGDSLCTHKGEIPALPPCKFTGSEIRVRDDKMPLAHLAIAVEAVGWAHPDTICLMVANTLIGNWDRSFGGGMNLSSKLAQLTCHGNLCHSFQSFNTSYTDTGLWGLYMVCESSTVADMLHVVQKEWMRLCTSVTESEVARARNLLKTNMLLQLDGSTPICEDIGRQMLCYNRRIPIPELEARIDAVNAETIREVCTKYIYNRSPAIAAVGPIKQLPDFKQIRSNMCWLRD [PMPCB]”, the “solubility in G1/S (log2)” value with HeLa Kyoto [1] was found to be 0.179. Moreover, the figures for the melting temperature with HeLa Kyoto [2] (cell cycle stage: G1/S) and with HeLa Kyoto [2] (cell cycle stage: mitosis) were 51.7 °C and 52.1 °C, respectively. The thermal stability score was -0.694 with HeLa Kyoto [3] (setting [5]) and -1.33 with HeLa Kyoto [3] (cell cycle stage: mitosis). Besides, the “solubility change mitosis (log2)” value in the series on HeLa Kyoto [4] was -0.0473.

In the case of “MAAAAARWNHVWVGTETGILKGVNLQRKQAANFTAGGQPRREEAVSALCWGTGGETQMLVGCADRTVKHFSTEDGIFQGQRHCPGGEGMFRGLAQADGTLITCVDSGILRVWHDKDKDTSSDPLLELRVGPGVCRMRQDPAHPHVVATGGKENALKIWDLQGSEEPVFRAKNVRNDWLDLRVPIWDQDIQFLPGSQKLVTCTGYHQVRVYDPASPQRRPVLETTYGEYPLTAMTLTPGGNSVIVGNTHGQLAEIDLRQGRLLGCLKGLAGSVRGLQCHPSKPLLASCGLDRVLRIHRIQNPRGLEHKVYLKSQLNCLLLSGRDNWEDEPQEPQEPNKVPLEDTETDELWASLEAAAKRKLSGLEQPQGALQTRRRKKKRPGSTSP [WDR74]”, the “solubility in G1/S (log2)” value with HeLa Kyoto [1] is -0.848. The same sequence registered a melting temperature with HeLa Kyoto [2] (cell cycle stage: mitosis) of 52 °C. Further, the thermal stability score in the series on HeLa Kyoto [3] (setting [5]) was -0.813; in the series on HeLa Kyoto [3] (cell cycle stage: mitosis), -1.48. Besides, in the series with HeLa Kyoto [4], the “solubility change mitosis (log2)” value was 0.631.

With “MAAAAASAPQQLSDEELFSQLRRYGLSPGPVTESTRPVYLKKLKKLREEEQQQHRSGGRGNKTRNSNNNNTAAATVAAAGPAAAAAAGMGVRPVSGDLSYLRTPGGLCRISASGPESLLGGPGGASAAPAAGSKVLLGFSSDESDVEASPRDQAGGGGRKDRASLQYRGLKAPPAPLAASEVTNSNSAERRKPHSWWGARRPAGPELQTPPGKDGAVEDEEGEGEDGEERDPETEEPLWASRTVNGSRLVPYSCRENYSDSEEEDDDDVASSRQVLKDDSLSRHRPRRTHSKPLPPLTAKSAGGRLETSVQGGGGLAMNDRAAAAGSLDRSRNLEEAAAAEQGGGCDQVDSSPVPRYRVNAKKLTPLLPPPLTDMDSTLDSSTGSLLKTNNHIGGGAFSVDSPRIYSNSLPPSAAVAASSSLRINHANHTGSNHTYLKNTYNKPKLSEPEEELLQQFKREEVSPTGSFSAHYLSMFLLTAACLFFLILGLTYLGMRGTGVSEDGELSIENPFGETFGKIQESEKTLMMNTLYKLHDRLAQLAGDHECGSSSQRTLSVQEAAAYLKDLGPEYEGIFNTSLQWILENGKDVGIRCVGFGPEEELTNITDVQFLQSTRPLMSFWCRFRRAFVTVTHRLLLLCLGVVMVCVVLRYMKYRWTKEEEETRQMYDMVVKIIDVLRSHNEACQENKDLQPYMPIPHVRDSLIQPHDRKKMKKVWDRAVDFLAANESRVRTETRRIGGADFLVWRWIQPSASCDKILVIPSKVWQGQAFHLDRRNSPPNSLTPCLKIRNMFDPVMEIGDQWHLAIQEAILEKCSDNDGIVHIAVDKNSREGCVYVKCLSPEYAGKAFKALHGSWFDGKLVTVKYLRLDRYHHRFPQALTSNTPLKPSNKHMNSMSHLRLRTGLTNSQGSS [LEMD3]”, in the series on HeLa Kyoto [1], the “solubility in G1/S (log2)” value came out at 0.0762. Besides, the results for the melting temperature in the series with HeLa Kyoto [2] (cell cycle stage: G1/S) and in the series with HeLa Kyoto [2] (cell cycle stage: mitosis) were 49.1 °C and 50.5 °C, respectively. For the same sequence, the figures for the thermal stability score with HeLa Kyoto [3] (setting [5]) and in the series with HeLa Kyoto [3] (cell cycle stage: mitosis) were 2.33 and 3.33, respectively. The “solubility change mitosis (log2)” value in the series on HeLa Kyoto [4] is -0.0382.

For “MAAAAGMLLLGLLQAGGSVLGQAMEKVTGGNLLSMLLIACAFTLSLVYLIRLAAGHLVQLPAGVKSPPYIFSPIPFLGHAIAFGKSPIEFLENAYEKYGPVFSFTMVGKTFTYLLGSDAAALLFNSKNEDLNAEDVYSRLTTPVFGKGVAYDVPNPVFLEQKKMLKSGLNIAHFKQHVSIIEKETKEYFESWGESGEKNVFEALSELIILTASHCLHGKEIRSQLNEKVAQLYADLDGGFSHAAWLLPGWLPLPSFRRRDRAHREIKDIFYKAIQKRRQSQEKIDDILQTLLDATYKDGRPLTDDEVAGMLIGLLLAGQHTSSTTSAWMGFFLARDKTLQKKCYLEQKTVCGENLPPLTYDQLKDLNLLDRCIKETLRLRPPIMIMMRMARTPQTVAGYTIPPGHQVCVSPTVNQRLKDSWVERLDFNPDRYLQDNPASGEKFAYVPFGAGRHRCIGENFAYVQIKTIWSTMLRLYEFDLIDGYFPTVNYTTMIHTPENPVIRYKRRSK [CYP51A1]”, the “solubility in G1/S (log2)” value with HeLa Kyoto [1] was -0.38. In addition, the melting temperature in the series with HeLa Kyoto [2] (cell cycle stage: G1/S) stood at 48.4 °C; in the series on HeLa Kyoto [2] (cell cycle stage: mitosis), 50 °C. Further, the figures for the thermal stability score with HeLa Kyoto [3] (setting [5]) and with HeLa Kyoto [3] (cell cycle stage: mitosis) were 2.55 and 3.17, respectively. Also, the “solubility change mitosis (log2)” value in the series on HeLa Kyoto [4] was determined as 0.0784.
